# Source: article PMC7162537
# Target: BRCA1 (UniProt P38398)
# Test: anti-HA co-IP from nuclear extract, blot
# Settings: reference: wild type FANCJ; sites S990
substance,measurement,value
FANCJ (from UniProt Q9BX63) S990A,binding against the reference,lost
